Patent US20260146107A1 (ALLIGATOR BIOSCIENCE, published 2026)
Substitutions are numbered along the chain they refer to.

T1: human CEACAM5, recombinant (R&D Systems #4128-CM-050) (human, UniProt P06731 35-685)
T1 construct: Bought; coated in ELISA and used as monomeric analyte in Octet; also called hCEACAM-5; Human CEACAM5-His; not shown: His tag
T1 sequence (looked up): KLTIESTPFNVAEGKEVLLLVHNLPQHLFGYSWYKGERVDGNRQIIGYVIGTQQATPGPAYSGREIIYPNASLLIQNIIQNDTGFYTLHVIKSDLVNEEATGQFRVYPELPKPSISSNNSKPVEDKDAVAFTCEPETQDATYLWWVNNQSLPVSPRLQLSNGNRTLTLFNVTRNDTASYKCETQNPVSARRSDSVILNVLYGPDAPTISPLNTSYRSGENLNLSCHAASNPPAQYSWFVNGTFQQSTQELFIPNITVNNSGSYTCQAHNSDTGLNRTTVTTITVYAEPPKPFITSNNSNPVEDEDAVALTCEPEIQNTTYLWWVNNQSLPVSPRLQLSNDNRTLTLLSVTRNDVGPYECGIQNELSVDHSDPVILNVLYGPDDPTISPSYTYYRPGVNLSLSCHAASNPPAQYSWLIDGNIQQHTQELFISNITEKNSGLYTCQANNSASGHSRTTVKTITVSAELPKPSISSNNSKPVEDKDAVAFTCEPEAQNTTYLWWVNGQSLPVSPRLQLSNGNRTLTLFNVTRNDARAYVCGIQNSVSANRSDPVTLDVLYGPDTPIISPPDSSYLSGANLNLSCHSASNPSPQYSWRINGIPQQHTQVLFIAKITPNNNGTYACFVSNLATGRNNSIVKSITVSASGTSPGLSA

T2: human CEACAM1, recombinant (R&D Systems #2244-CM-050) (human, UniProt P13688 35-428)
T2 construct: also called hCEACAM-1
T2 sequence (looked up): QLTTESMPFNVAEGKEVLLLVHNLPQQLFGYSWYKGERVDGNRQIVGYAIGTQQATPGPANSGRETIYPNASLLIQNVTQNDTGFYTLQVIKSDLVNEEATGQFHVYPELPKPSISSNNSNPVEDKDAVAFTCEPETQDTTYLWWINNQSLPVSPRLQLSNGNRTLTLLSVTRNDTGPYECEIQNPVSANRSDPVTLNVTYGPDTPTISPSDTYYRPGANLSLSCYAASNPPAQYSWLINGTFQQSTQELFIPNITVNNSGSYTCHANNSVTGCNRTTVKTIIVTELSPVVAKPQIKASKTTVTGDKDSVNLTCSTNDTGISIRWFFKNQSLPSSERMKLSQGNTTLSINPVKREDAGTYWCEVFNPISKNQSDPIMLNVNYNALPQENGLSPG

B1: Multi42 (bispecific antibody, human IgG1, kappa, L234A L235A)
chain 1: not shown
chain 2: EIVLTQSPGTLSLSPGERATLSCRASQSVSSSYLAWYQEKPGQAPRLLIYGASSRATGIPDRFSGSGSGTDFTLTISRLEPEDFAVYYCQQYWYPLTFGQGTKLEIKRTVAAPSVFIFPPSDEQLKSGTASVVCYLNNFYPREAKVQWKVDNALQSGNSQESVTEQDSKDSTYSLWSTLTLSKADYEKHKVYACEVTHQGLSSPVTKSFNRGEC
chain 3: EVQLLESGGGLVQPGGSLRLSCAASGFTFSTYGMHWVREAPGKGLEWLSYISGGSSYIFYADSVKGRFTISRDNSKNTLYLQMNSLRAEDTAVYYCARILRGGSGMDLWGQGTLVTVSSASTKGPSVFPLAPSSKSTSGGTAALGCLVKDYFPEPVTVSWNSGALTSGVHTFPAVLQSSGLYSLTSVVEVPSSSLGTQTYICNVNHKPSNTKVDKKVEPKSC
B2: AC_05091 (antibody, human IgG1, kappa, V domains shown)
VH: EVQLLESGGGLVQPGGSLRLSCAASGFTFSSSYMGWVRQAPGKGLEWVSSIGSGSYSTSYADSVKGRFTISRDNSKNTLYLQMNSLRAEDTAVYYCARYPSVPFPPHFDYWGQGTLVTVSS
VL: DIQMTQSPSSLSASVGDRVTITCRASQSISSYLNWYQQKPGKAPKLLIYAASSLQSGVPSRFSGSGSGTDFTLTISSLQPEDFATYYCQQAGNPHTFGQGTKLEIKR
B3: AC_05097 (antibody, human IgG1, kappa, V domains shown)
VH: B2 VH with P105S, F108L
VL: B2 VL
B4: AC_05094 (antibody, human IgG1, kappa, V domains shown)
VH: B2 VH with F108W
VL: B2 VL
B5: AC_05093 (antibody, human IgG1, kappa, V domains shown)
VH: B2 VH with F108V
VL: B2 VL
B6: AC_05098 (antibody, V domains shown)
VH: EVQLLESGGGLVQPGGSLRLSCAASGFTFGSYYMSWVRQAPGKGLEWVSGISGYGYYTGYADSVKGRFTISRDNSKNTLYLQMNSLRAEDTAVYYCARNGYGVIDYWGQGTLVTVSS
VL: DIQMTQSPSSLSASVGDRVTITCRASQSIRDYLNWYQQKPGKAPKLLIYAASSLQSGVPSRFSGSGSGTDFTLTISSLQPEDFATYYCQQGTFPFTFGQGTKLEIK
B7: AC_05084 (antibody, V domains shown)
VH: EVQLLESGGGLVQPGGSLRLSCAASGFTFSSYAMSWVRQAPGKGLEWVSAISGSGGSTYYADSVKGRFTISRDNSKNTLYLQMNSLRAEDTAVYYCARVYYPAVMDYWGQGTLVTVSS
VL: B6 VL with R30S, D31S, G91V, T92D, F93G, P94L
B8: AC_05082 (antibody, V domains shown)
VH: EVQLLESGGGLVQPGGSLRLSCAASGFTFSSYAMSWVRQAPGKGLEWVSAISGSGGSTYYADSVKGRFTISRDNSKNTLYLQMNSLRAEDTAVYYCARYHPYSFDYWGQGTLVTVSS
VL: B6 VL with R30S, D31S, G91A, T92G, F93N, F95H
B9: AC_05100 (antibody, V domains shown)
VH: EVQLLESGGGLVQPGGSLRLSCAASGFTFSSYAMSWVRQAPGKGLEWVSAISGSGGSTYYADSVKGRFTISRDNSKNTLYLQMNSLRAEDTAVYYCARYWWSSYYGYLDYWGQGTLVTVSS
VL: B6 VL with R30S, D31S, G91A, T92G, F93N, F95H
B10: AC_05085 (antibody, V domains shown)
VH: EVQLLESGGGLVQPGGSLRLSCAASGFTFGSYYMYWVRQAPGKGLEWVSSIGGYSGSTYYADSVKGRFTISRDNSKNTLYLQMNSLRAEDTAVYYCARNTPFPGGSGLDYWGQGTLVTVSS
VL: B6 VL with R30S, D31S, G91A, T92G, F93N, F95H
B11: AC_05079 (antibody, human IgG1, kappa, V domains shown)
VH: B2 VH with H107P, F108L
VL: B2 VL
B12: AC_05095 (antibody, V domains shown)
VH: B2 VH with P106S, F108L
VL: B6 VL with R30S, D31S, G91A, T92G, F93N, F95H
B13: AC_05086 (antibody, V domains shown)
VH: B2 VH with R98H, F108L
VL: B6 VL with R30S, D31S, G91A, T92G, F93N, F95H
B14: AC_05096 (antibody, human IgG1, kappa, V domains shown)
VH: B2 VH with P105R, F108L
VL: B2 VL
B15: AC_05092 (antibody, V domains shown)
VH: B2 VH with F108L
VL: B6 VL with R30S, D31S, Y32D, G91A, T92G, F93N, F95H
B16: AC_05087 (antibody, V domains shown)
VH: B2 VH with S101P, F108L
VL: B6 VL with R30S, D31S, G91A, T92G, F93N, F95H
B17: AC_05083 (antibody, V domains shown)
VH: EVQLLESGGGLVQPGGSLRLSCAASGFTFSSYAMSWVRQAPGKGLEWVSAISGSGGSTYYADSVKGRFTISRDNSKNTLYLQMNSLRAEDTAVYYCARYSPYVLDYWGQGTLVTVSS
VL: DIQMTQSPSSLSASVGDRVTITCRASQSIRGYLNWYQQKPGKAPKLLIYAASSLQSGVPSRFSGSGSGTDFTLTISSLQPEDFATYYCQQPSYPSLFTFGQGTKLEIK

Molecular target: human CD40 expressed on cells (CD40 reporter cells, HEK Blue CD40L cells, primary B cells, tumour APCs) (human, UniProt P25942 21-277)
Sequence (P25942 21-277): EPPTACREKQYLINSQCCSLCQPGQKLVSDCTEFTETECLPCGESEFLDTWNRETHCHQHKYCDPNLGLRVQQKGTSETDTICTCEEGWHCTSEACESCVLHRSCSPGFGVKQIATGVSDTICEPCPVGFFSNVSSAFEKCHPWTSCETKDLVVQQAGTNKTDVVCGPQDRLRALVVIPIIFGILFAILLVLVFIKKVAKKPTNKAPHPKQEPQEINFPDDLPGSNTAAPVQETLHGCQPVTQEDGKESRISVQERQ
Test: cell-based or functional assay

| Binder | EC50 of SEAP release, HEK Blue CD40L reporter cells, bsAb crosslinked to CHO-CEACAM5 cells, 0 Raji sink cells/well [nM] | EC50 of SEAP release, same assay, 10 000 Raji sink cells/well [nM] | EC50 of SEAP release, same assay, 30 000 Raji sink cells/well [nM] | EC50 of SEAP release, same assay, 90 000 Raji sink cells/well [nM] |
| --- | --- | --- | --- | --- |
| B1 | 0.04 | 0.06 | 0.11 | 0.36 |

Molecular target: T1, human CEACAM5, recombinant (R&D Systems …)
Test: Octet BLI, IgG1 captured on AHC tips, CEACAM5-His in solution, 1:1 fit
Procedure: Kinetic measurements were performed in the Octet RED96 platform using several different setups. Monoclonal antibodies (listed in Table 9), serially diluted ½ starting at 100 nM, were captured to anti human IgG Fc Capture (AHC) Biosensor tips (Sartorius #18-5060). Human CEACAM5-His (R&D Systems #4128-CM-050) diluted in 1× kinetic buffer (Sartorius) at 100 nM was then added. Binding kinetics was studied in 1× kinetic buffer where association was allowed for 300 sec followed by dissociation for 600 sec. Sensor tips were regenerated with 10 mM Glycine pH 1.7. Data generated were referenced by subtracting blank or parallel buffer blank, the baseline was aligned to the y-axis, inter-step correction by alignment against dissociation was performed and the data was smoothed by Savitzky-Golay filter in the data analysis software (v9.0.0.14). The processed data was fitted using a 1:1 Langmuir binding model with R² or X² as a measurement of fitting accuracy.

| Binder | Kd [nM] | koff [s⁻¹] | kon [M⁻¹ s⁻¹] |
| --- | --- | --- | --- |
| B2 | 2 | 0.0003 | 200000 |
| B3 | 0.07 | 2e-05 | 200000 |
| B4 | 50 | 0.0008 | 20000 |
| B5 | 0.4 | 0.0001 | 300000 |

Molecular target: T1, human CEACAM5, recombinant (R&D Systems …)
Test: ELISA, antigen coated at 0.5 µg/mL, IgG1 antibody at 10 µg/ml, anti-human kappa-HRP, luminescence
Procedure: (§1) 96-well plates were coated with 0.5 μg/mL antigen, hCEACAM-5 (4128-CM-050, R&D Systems), hCEACAM-1 (2244-CM-050, R&D Systems), hCEACAM-6(3934-CM-050, R&D Systems) or CEACAM-8 (9639-CM-050, R&D Systems) in PBS over night at 4° C. After washing with PBS/0.05% Tween 20 (PBST), the plates were blocked with PBST, 2% BSA for at least 30 minutes at room temperature before a second round of washing. […] After washing, plates were incubated with 50 μl detection antibody (0.5 μg/ml HRP conjugated goat anti human-kappa light chain, #STAR127P, AbD Serotec). Finally, a final round of washing was performed and bound complexes detected using SuperSignal Pico Luminescent as substrate and luminescence signals were measured using Fluostar Optima.

| Binder | binding result |
| --- | --- |
| B6 | no binding (tested: 10 µg/ml) |
| B7 | no binding (tested: 10 µg/ml) |
| B8 | no binding (tested: 10 µg/ml) |
| B9 | no binding (tested: 10 µg/ml) |
| B10 | no binding (tested: 10 µg/ml) |
| B11 | binds |
| B12 | binds |
| B13 | binds |
| B14 | binds |
| B15 | no binding (tested: 10 µg/ml) |
| B16 | binds |
| B17 | binds |

Molecular target: T2, human CEACAM1, recombinant (R&D Systems …)
Test: as above
Procedure: as §1

| Binder | binding result |
| --- | --- |
| B6 | no binding (tested: 10 µg/ml) |
| B7 | no binding (tested: 10 µg/ml) |
| B8 | no binding (tested: 10 µg/ml) |
| B9 | no binding (tested: 10 µg/ml) |
| B10 | no binding (tested: 10 µg/ml) |
| B11 | no binding (tested: 10 µg/ml) |
| B2 | no binding (tested: 10 µg/ml) |
| B12 | binds |
| B3 | no binding (tested: 10 µg/ml) |
| B13 | binds |
| B14 | no binding (tested: 10 µg/ml) |
| B4 | no binding (tested: 10 µg/ml) |
| B15 | no binding (tested: 10 µg/ml) |
| B5 | no binding (tested: 10 µg/ml) |
| B16 | binds |
| B17 | binds |
